These are literature values, as cited in paper PMC3440555 (Bioconjugate chemistry, 2012).

What is called IC50 is the point on the concentration scale where inhibition reaches its midpoint.

Data set [1] deals with melanocortin-1 (MC1) receptor (Mus musculus, UniProt Q01727). The conditions noted are these: read-out: MC1 receptor binding affinity (IC50 value); B16/F1 melanoma cells.
For data set [2], the system named is B16/F1 melanoma-bearing C57 mice.
For data set [3], the system named is B16/F1 melanoma-bearing mouse. The conditions noted are these: flank primary B16/F1 melanoma and B16/F10 pulmonary melanoma metastases; 2 h post-injection.

Sequence of melanocortin-1 (MC1) receptor (Q01727 whole entry): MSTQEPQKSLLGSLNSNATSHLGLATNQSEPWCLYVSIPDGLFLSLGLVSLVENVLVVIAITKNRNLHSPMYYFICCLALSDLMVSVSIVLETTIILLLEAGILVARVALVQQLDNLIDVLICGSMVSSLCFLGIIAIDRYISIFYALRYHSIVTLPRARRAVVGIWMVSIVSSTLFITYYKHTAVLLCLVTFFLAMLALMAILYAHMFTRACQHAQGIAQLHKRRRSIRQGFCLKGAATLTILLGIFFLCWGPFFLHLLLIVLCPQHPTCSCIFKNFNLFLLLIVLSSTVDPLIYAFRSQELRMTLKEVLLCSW

With “DOTA-GGNle-CycMSHhex: non-radiolabeled DOTA-conjugated lactam bridge-cyclized alpha-MSH peptide, DOTA-Gly-Gly-Nle-c[Asp-His-DPhe-Arg-Trp-Lys]-CONH2”, in data set [1], the 50% inhibitory concentration (IC50) was 2.1 nM.

Turning to “^67Ga-DOTA-Gly-Glu-c[Lys-Nle-Glu-His-DPhe-Arg-Trp-Gly-Arg-Pro-Val-Asp] [^67Ga-DOTA-GlyGlu-CycMSH]”, the “Decrease of renal uptake by L-lysine co-injection” value in data set [2] (2 h post-injection, melanoma uptake not affected) is recorded as 69.8%. In addition, in data set [2] (mouse, in vivo, 2 h), the Renal uptake is recorded as 27.55 ± 7.87 %ID/g and the Tumor uptake was 12.93 ± 1.63 %ID/g. For the same substance, the “Visualization of melanoma by SPECT/CT” value in data set [3] is “clearly visualized”.
